# Laboratory results from the supplement of paper PMC12764529.
# ± gives the half width of the 95% confidence interval.
# Assay: folding stability dG unfold from chymotrypsin proteolysis; higher = more stable
# In short: (§1)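 Designed mini-proteins with no cysteine and under 80 residues were kept only if AlphaFold2 dimer inter-PAE was above 15. In a PA-tagged cDNA display construct, they were digested with trypsin and chymotrypsin and then sequenced. K50 was inferred by Bayesian fitting of counts, and unfolding free energy was derived per protease or combined against a sequence-predicted unfolded-state K50 and a shared folded-state K50.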
row,Sequence,folding stability dG unfold
1,SAGGSAGGSAKPQKVELELFPNGELIIRLPETGARIRLKVEVFKDASGNPFFKLEIVDIDPSAGGSAGGSAG [r3_76_TrMRF],11.1 ± 0.243 kJ/mol
2,SAGGSAGGKLSIPIHIPGLTPEEARKIVKYFAAAGIPPDNVTIEVQPVPPVPPMTPEEMEKHNKSAGGSAGG [r6_246_TrROS],4.13 ± 0.544 kJ/mol
3,SAGGSAGGSEKPPVKTITLVLKVDDAEEAAKALAEELGVEITRIEVTRDENGKVYVRITIRLPSAGGSAGGS [r12_359_TrROS_Hall],16.7 ± 0.414 kJ/mol
4,SAGGSAGGSAGWFTIMFKADSPEKVEEIVDELAQENGLEVEIERNPGEPGYIMITIKPPPSAGGSAGGSAGG [r11_797_TrROS],4.07 ± 0.879 kJ/mol
5,SAGGSAGGSAMVVRGEDLTPEALLELLEENPEEVTLETKDHIATVKFNPETGELEITSVDDISAGGSAGGSA [r18_75_TrMRF],7.25 ± 0.414 kJ/mol
6,SAGMKIKIIKLDKNLEELSEEELKKLLEELAKKGLVEKKKDGKKVIPLTVIDKKTKKTYTFYIEIEKPPSAG [r5_243_TrROS_Hall],11.4 ± 0.238 kJ/mol
7,SAGGEKTLTVEYNPEDDYLTFTLTLTRPGYDPVTGKPREYKVTLTFTVPLNEATPEHVKLALEIYEKDSAGG [r13_980_TrMRF],19.7 ± 0.628 kJ/mol
8,SAEVRPDEVLRIEVRLRVGDVEFTAEAEIPAGLSEEEIREAVERIREEAERLAERLRRLPPLRPPEELLSAG [r14_70_TrMRF],12.4 ± 0.586 kJ/mol
9,SAGGSAGGSAGGSYTVSEIPEEGLVLKTLPNGVVTRYKVSPDGSLEEIATFEPGNGVLIKSAGGSAGGSAGG [r7_659_JUSTAS],4.59 ± 0.402 kJ/mol
10,SAGGSAIWIPADEIRELAKEPGLEVEKEPQPDGMLHFTIKNPKNGKRITIVVWDPENGWWHIMPIPSAGGSA [r15_442_TrROS],3.57 ± 0.41 kJ/mol
11,SAGGSAGGSEKVEIEREFKLPDPNGKPFRFTVEIEVEPRNDGLKIEITEVEGPWMRDAIKKLLSAGGSAGGS [r12_743_TrROS],3.86 ± 1 kJ/mol
12,SAGGKKKPKIRIKVEIDGKTVEVEVESPEELVEALKELGFEVEVVEVTEKTVVIKLKDGKLIRIEKESAGGS [r8_365_TrROS_Hall],8.6 ± 0.109 kJ/mol
13,SAGGSAGGSAGGNVRLTVTLDENGRLRVTAEVEVTNENGEKKTYRLTLTLKLKPGQTLTSAGGSAGGSAGGS [r10_763_TrROS_Hall],16.16 ± 0.1 kJ/mol
14,SAGGSAGGSASSIVLTKTPGSYVLTEVELSSSTYPPSPPDYGSVVTVTPLEVVEREPGVPLPSAGGSAGGSA [r18_255_JUSTAS],1.1 ± 0.795 kJ/mol
15,SAGGSFVVIEPTADGVRIVLEDDGALREVPVSPEVAAALAANPDLEGVVRSLLPEGHPIERIAAVPGSAGGS [r16_567_TrMRF],-1.99 ± 0.711 kJ/mol
16,SAGGSAGGSAGGGPEDRVVPLFFEFDLPEDVVLEVPSDADVFVFRLPDRTLMVLLVDERESAGGSAGGSAGG [r7_584_TrMRF],12.05 ± 0.0962 kJ/mol
17,SAGAMLTLELTVEADSPEEAIERAKEIAKELIKKEYPELSKNTKIEKITAEPTPGPEVKVTITIKIDPGSAG [r5_320_JUSTAS],15.1 ± 0.753 kJ/mol
18,SAGGSAGGSAKMEIVLEVDTPEEAKEAAKKLAEELKKKGYKVKVEVKKLKNGKYYVKITVDSAGGSAGGSAG [r3_211_TrROS_Hall],20.3 ± 1.09 kJ/mol
19,SAGGSAGGSAGPPNQRHEYEIKLTIYDPDNGKKFTIKIPMESPWDMPNFMRKLADNGYIKSAGGSAGGSAGG [r11_668_TrROS],5.78 ± 0.46 kJ/mol
20,SPWYVRIKLEYPGKEKRIMIPPDESISQIKDNIRDFAREMGLEEPPLDDFKIEDVEVFPDENGMVSIEIKSA [r9_1053_TrROS],4.79 ± 0.879 kJ/mol
21,SAGGSAGGGIEEELRRVLPEDATVTIEEVPERPLLVVTVTFPERAETRTFTFSPESPEKLIEALSAGGSAGG [r6_612_JUSTAS],2.63 ± 0.502 kJ/mol

# Assay: folding stability dG unfold (combined trypsin and chymotrypsin); higher = more stable
# In short: as §1
row,Sequence,folding stability dG unfold
1,SAGGNTIMIPMDPPQAREFAKNFIGEFLDQAEENPDRPIEIMVPGPEGRYITIRVDPKEGNLEIEVVPSAGG [r13_216_TrROS],0.523 ± 0.372 kJ/mol
2,SAGGSAGGSAGKKELTFKDKNGKTITVTLEDGEIKEIKIEKPPKPKVVKTEKKYVPKEELSAGGSAGGSAGG [r17_287_TrROS_Hall],0.566 ± 1.67 kJ/mol
3,SAGGSAGGPNYFVRITIKMRKPNGKPIGEFPIWIPFKSKEQARSLADELAQMPGIEKVDIELVPSAGGSAGG [r6_475_TrROS],10.6 ± 0.213 kJ/mol
4,SAGGSAGGMKVVVKFTVRPRDPDTDEAVPAELVLEFDSLEEALAAAEELAALPEGTEIEIEVLTSAGGSAGG [r6_999_TrMRF],8.18 ± 0.368 kJ/mol
5,GPEVLVETFVDPETGRVVVRVYFPEPDRLVLAVGERGGDGVRVLVVEYEADPLEPRFAEFEFPALPEGFDES [r1_404_TrMRF],10.2 ± 0.385 kJ/mol
6,SAGGSAGGSAMSEEEKKKKKPKLEIKVKVEFTVDENGTVRAKVTFEDGTTLEVEIKLPPELLSAGGSAGGSA [r18_192_TrROS_Hall],7.1 ± 0.46 kJ/mol
7,SAGGSAGGSAGGKLPPGDIIPMEFEAEFPVYKRDPEGGDWEPIGPMRIDFTIIIRLPPGSAGGSAGGSAGGS [r10_1115_TrROS],11.2 ± 0.92 kJ/mol
8,SAGPVTIPIFYRVPPGEPMTPEAKEFAIELAKYIARLFPPGYKIEIDSIEWERHPNYYYFRVTIEIEPPSAG [r5_121_TrROS],15.2 ± 1.13 kJ/mol
9,SAGMYTITISRLPGGEYEVRVTDAANGEEVARRPVASEEEARAEAERIAAEIAEADPDVEVRVSESDAESAG [r5_383_JUSTAS],11.8 ± 0.167 kJ/mol
10,SAGGSAGGSAGGSMELIPTPEDTVTVVETTPVAPTPNGTPVPATVTTTTLPKEEVEAAASAGGSAGGSAGGS [r4_238_JUSTAS],8.77 ± 0.259 kJ/mol
11,SSLEIPPEVLAEIKKAALEGDDEKVKELLKELGFTKVEIKYEKLDGKVKLTIKVEHPEGPATITFSDELLSA [r9_783_JUSTAS],17.7 ± 1.17 kJ/mol
12,SAGGGLLEELARELGFEAEIEEIPETGILRITLRPEDGSEVEITVKVTRIPGLGEVKLEVLEVKVRPTSAGG [r13_936_TrMRF],14 ± 0.837 kJ/mol
13,SAGMVIELKTEEEAKAKAEEIAKKNPEANVTLVVTDPETGVKTVIPVKIESPKPKPEFDKKNGKYKDKGSAG [r5_870_JUSTAS],-0.0561 ± 1.46 kJ/mol
14,SLSEEEAKDNPEEANEKMQPPPVPPIPLPVPIRNPDNKQEFPAPFEIRTLPNHLEFRFPGNGKPFPVPIDSA [r9_548_TrROS],11 ± 1.17 kJ/mol
15,SAGLNIPPEMTVDELVEFLKSLGVKSYKVEKTEDPESYVVTFEFPDFTVVMTFHPDSVTITVVPKDEPLSAG [r5_899_TrMRF],14 ± 0.586 kJ/mol
16,SAGGSAGGSAGMETIRLTFTVPGPDDRYYRVSVEARINPPTGEIEILRVEITPLDNPDAISAGGSAGGSAGG [r11_777_TrMRF],15.4 ± 0.218 kJ/mol
17,SEGSVRLEFTFTLPDGTRLTVEVTVHYDAATGEFHVSVSVRVEPLPDTSRPWEERPVRLPDGTWVSAADLSA [r9_898_TrMRF],10.5 ± 0.544 kJ/mol
18,SAGGVVEVEVPDLSLEEALERVREEYPDVPEFTLTLPSGERVEFRVEGDRVEVVRREPLGPRPPELESAGGS [r8_225_JUSTAS],6.44 ± 0.276 kJ/mol
19,SAGGMEKVKVRVFFIDEETGEPREVEVEATLEELRELIEKIPDKGRVLVKLELPDEERIVTLEELKERSAGG [r13_254_TrMRF],11.6 ± 0.628 kJ/mol
20,SPGVTVEISTSTLPNGTRVTTLTTTTFDPQTGTTSTTTTVTVSPAPSSASPLRRELVTRPDGTLVPAALLSA [r9_898_JUSTAS],0.702 ± 0.318 kJ/mol
21,SAGGSAMTVTLIVGDKPITIPLTASLSDIKAALEEHPDVPVYIILPNGKRIEMKVSDLIKMMEKAGSAGGSA [r15_36_TrMRF],13.2 ± 0.418 kJ/mol

row,Sequence,folding stability dG unfold
1,SAGGSAGGSAKPQKVELELFPNGELIIRLPETGARIRLKVEVFKDASGNPFFKLEIVDIDPSAGGSAGGSAG [r3_76_TrMRF],10.9 ± 0.669 kJ/mol
2,SAGGSAGGKLSIPIHIPGLTPEEARKIVKYFAAAGIPPDNVTIEVQPVPPVPPMTPEEMEKHNKSAGGSAGG [r6_246_TrROS],2.57 ± 0.837 kJ/mol
3,SAGGSAGGSEKPPVKTITLVLKVDDAEEAAKALAEELGVEITRIEVTRDENGKVYVRITIRLPSAGGSAGGS [r12_359_TrROS_Hall],16.3 ± 0.586 kJ/mol
4,SAGGSAGGSAGWFTIMFKADSPEKVEEIVDELAQENGLEVEIERNPGEPGYIMITIKPPPSAGGSAGGSAGG [r11_797_TrROS],5.33 ± 0.502 kJ/mol
5,SAGGSAGGSAMVVRGEDLTPEALLELLEENPEEVTLETKDHIATVKFNPETGELEITSVDDISAGGSAGGSA [r18_75_TrMRF],6.71 ± 0.544 kJ/mol
6,SAGMKIKIIKLDKNLEELSEEELKKLLEELAKKGLVEKKKDGKKVIPLTVIDKKTKKTYTFYIEIEKPPSAG [r5_243_TrROS_Hall],9.75 ± 0.711 kJ/mol
7,SAGGEKTLTVEYNPEDDYLTFTLTLTRPGYDPVTGKPREYKVTLTFTVPLNEATPEHVKLALEIYEKDSAGG [r13_980_TrMRF],17.9 ± 2.34 kJ/mol
8,SAEVRPDEVLRIEVRLRVGDVEFTAEAEIPAGLSEEEIREAVERIREEAERLAERLRRLPPLRPPEELLSAG [r14_70_TrMRF],11 ± 1.8 kJ/mol
9,SAGGSAGGSAGGSYTVSEIPEEGLVLKTLPNGVVTRYKVSPDGSLEEIATFEPGNGVLIKSAGGSAGGSAGG [r7_659_JUSTAS],3.21 ± 0.46 kJ/mol
10,SAGGSAIWIPADEIRELAKEPGLEVEKEPQPDGMLHFTIKNPKNGKRITIVVWDPENGWWHIMPIPSAGGSA [r15_442_TrROS],3.88 ± 0.347 kJ/mol
11,SAGGSAGGSEKVEIEREFKLPDPNGKPFRFTVEIEVEPRNDGLKIEITEVEGPWMRDAIKKLLSAGGSAGGS [r12_743_TrROS],3.79 ± 0.837 kJ/mol
12,SAGGKKKPKIRIKVEIDGKTVEVEVESPEELVEALKELGFEVEVVEVTEKTVVIKLKDGKLIRIEKESAGGS [r8_365_TrROS_Hall],8.43 ± 0.197 kJ/mol
13,SAGGSAGGSAGGNVRLTVTLDENGRLRVTAEVEVTNENGEKKTYRLTLTLKLKPGQTLTSAGGSAGGSAGGS [r10_763_TrROS_Hall],14.8 ± 0.544 kJ/mol
14,SAGGSAGGSASSIVLTKTPGSYVLTEVELSSSTYPPSPPDYGSVVTVTPLEVVEREPGVPLPSAGGSAGGSA [r18_255_JUSTAS],0.737 ± 0.753 kJ/mol
15,SAGGSFVVIEPTADGVRIVLEDDGALREVPVSPEVAAALAANPDLEGVVRSLLPEGHPIERIAAVPGSAGGS [r16_567_TrMRF],-1.89 ± 0.837 kJ/mol
16,SAGGSAGGSAGGGPEDRVVPLFFEFDLPEDVVLEVPSDADVFVFRLPDRTLMVLLVDERESAGGSAGGSAGG [r7_584_TrMRF],10.5 ± 0.238 kJ/mol
17,SAGAMLTLELTVEADSPEEAIERAKEIAKELIKKEYPELSKNTKIEKITAEPTPGPEVKVTITIKIDPGSAG [r5_320_JUSTAS],18.1 ± 0.92 kJ/mol
18,SAGGSAGGSAKMEIVLEVDTPEEAKEAAKKLAEELKKKGYKVKVEVKKLKNGKYYVKITVDSAGGSAGGSAG [r3_211_TrROS_Hall],19.5 ± 1.38 kJ/mol
19,SAGGSAGGSAGPPNQRHEYEIKLTIYDPDNGKKFTIKIPMESPWDMPNFMRKLADNGYIKSAGGSAGGSAGG [r11_668_TrROS],4.69 ± 0.46 kJ/mol
20,SPWYVRIKLEYPGKEKRIMIPPDESISQIKDNIRDFAREMGLEEPPLDDFKIEDVEVFPDENGMVSIEIKSA [r9_1053_TrROS],3.43 ± 1.72 kJ/mol
21,SAGGSAGGGIEEELRRVLPEDATVTIEEVPERPLLVVTVTFPERAETRTFTFSPESPEKLIEALSAGGSAGG [r6_612_JUSTAS],2.84 ± 0.502 kJ/mol
